Values of other authors, collected in article PMC3652491.

Target: Nef peptide 12-residue peptide (Human immunodeficiency virus 1) (UniProt P04324)

Hck SH3 (from UniProt P08631)
Kd: 90 µM
